Data on 2 molecules can be found in US20070178531A1 (BIOCHECK, published 2007).

For experiment [1], the target named is T1, Human Id1: Histidine (human, UniProt P41134 1-155, limits assumed).
T1 construct: Fusion protein made in E. coli from vector pGW07; also called h-Id1: his; not shown: His tag
T1 sequence (looked up): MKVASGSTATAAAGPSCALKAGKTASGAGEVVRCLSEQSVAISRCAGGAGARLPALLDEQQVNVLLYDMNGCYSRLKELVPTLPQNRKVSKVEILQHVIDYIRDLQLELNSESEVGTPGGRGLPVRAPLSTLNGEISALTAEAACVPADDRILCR
Kind of experiment: ELISA on coated wells, summary. Background: In an ELISA, binding on a coated surface is turned into a signal by an enzyme label.

For experiment [2], the target named is T2, Mouse Id2: Histidine (mouse, UniProt P41136 1-134, limits assumed).
T2 construct: Fusion protein made in E. coli from vector pGW07; also called m-Id2: His; not shown: His tag
T2 sequence (looked up): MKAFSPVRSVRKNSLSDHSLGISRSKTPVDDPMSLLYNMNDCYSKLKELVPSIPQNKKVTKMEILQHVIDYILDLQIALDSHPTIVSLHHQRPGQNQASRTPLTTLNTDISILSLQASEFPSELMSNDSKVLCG
Briefly: ELISA on coated wells, summary.

The target of experiment [3] is T3, Human Id2: Histidine (human, UniProt Q02363 1-134, limits assumed).
T3 construct: Fusion protein made in E. coli from vector pGW07; also called h-Id2: His; not shown: His tag
T3 sequence (looked up): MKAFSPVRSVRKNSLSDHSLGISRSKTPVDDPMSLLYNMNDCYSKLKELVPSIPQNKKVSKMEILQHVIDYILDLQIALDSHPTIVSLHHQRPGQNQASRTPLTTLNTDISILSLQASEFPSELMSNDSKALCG
Briefly: ELISA on coated wells, summary.

Another experiment has as its target T4, Mouse Id4: Histidine (mouse, UniProt P41139 1-161, limits assumed).
T4 construct: Fusion protein made in E. coli from vector pGW07; also called m-Id4: His; not shown: His tag
T4 sequence (looked up): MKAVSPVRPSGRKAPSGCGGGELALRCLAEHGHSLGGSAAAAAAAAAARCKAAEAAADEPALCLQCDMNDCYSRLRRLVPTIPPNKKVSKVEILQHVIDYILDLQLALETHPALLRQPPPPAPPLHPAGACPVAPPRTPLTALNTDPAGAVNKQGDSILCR
Kind of experiment: ELISA on coated wells, summary.

A further experiment has as its target T5, Human Id4: Histidine (human, UniProt P47928 1-161, limits assumed).
T5 construct: Fusion protein made in E. coli from vector pGW07; also called h-Id4: His; not shown: His tag
T5 sequence (looked up): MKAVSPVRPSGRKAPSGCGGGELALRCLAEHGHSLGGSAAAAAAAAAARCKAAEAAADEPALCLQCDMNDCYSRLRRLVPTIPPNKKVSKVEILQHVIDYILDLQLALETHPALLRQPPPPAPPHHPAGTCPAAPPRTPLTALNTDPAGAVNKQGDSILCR
Kind of experiment: ELISA on coated wells, summary.

Experiment [4] has as its target T6, Mouse Id1: Histidine (mouse, UniProt P20067-2 1-148, limits assumed).
T6 construct: Fusion protein made in E. coli from vector pGW07; also called m-Id1-His; not shown: His tag
T6 sequence (looked up): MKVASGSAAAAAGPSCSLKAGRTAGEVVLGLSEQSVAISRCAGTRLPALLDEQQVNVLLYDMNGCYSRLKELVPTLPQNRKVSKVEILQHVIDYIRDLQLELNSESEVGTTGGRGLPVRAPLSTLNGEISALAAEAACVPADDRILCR
Kind of experiment: ELISA on coated wells, summary.

For experiment [5], the target named is T2, Mouse Id2: Histidine. Briefly: ELISA, Ab 0.005 µg/ml.
Experiment [6] deals with T3, Human Id2: Histidine. Kind of experiment: ELISA, Ab 0.005 µg/ml.
The target in experiment [7] is T7, Human Id3: Histidine (human, UniProt Q02535 1-119 at identity 1.00)).
T7 construct: Fusion protein made in E. coli from vector pGW07; also called h-Id3: His; Human Id3 (coated wells); not shown: His tag
T7 chain: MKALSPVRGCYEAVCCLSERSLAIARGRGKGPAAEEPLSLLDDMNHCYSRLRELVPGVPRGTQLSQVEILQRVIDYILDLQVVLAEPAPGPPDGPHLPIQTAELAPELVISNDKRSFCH
Briefly: ELISA, Ab 0.005 µg/ml.

The target of experiment [8] is T6, Mouse Id1: Histidine. Briefly: ELISA, Ab 0.005 µg/ml.
The target of experiment [9] is T1, Human Id1: Histidine. Kind of experiment: ELISA, Ab 0.025 µg/ml. On the procedure:
(§1) 1. Dispense 100 μL of antibody diluent, diluted rabbit monoclonal human Id3, and mouse/human Id3 hybridoma supernatants into appropriate wells. […] 2. Incubate at room temperature with mechanical shaking at 750 rpm for 90 minutes. [0165] 3. Remove the incubation mixture by flicking plate content into an appropriate waste container followed by rinsing the wells 5 times with distilled water. [0166] 4. Strike the wells sharply onto absorbent paper or paper towels to remove all residual water droplets. [0167] 5. Dispense 100 μL of 1:50,000 Goat Anti-Rabbit IgG-HRP Conjugate Reagent into each well. Gently mix for 5 seconds. [0168] 6. Incubate at room temperature with mechanical shaking at 750 rpm for 90 minutes. [0169] 7. Repeat procedures 3 and 4. [0170] 8. Dispense 100 μL of TMB Reagent into each well. Gently mix for 5 seconds. [0171] 9. Incubate at room temperature with mechanical shaking at 750 rpm for 20 minutes. […] 10. Add 100 μL of Stop Solution (1N HCl) into each well. [0173] 11. Gently mix for 10 seconds to ensure a complete mixing. [0174] 12. Read optical density at A450 nm.
(§2) Cross-reactivity of rabbit monoclonal anti-mouse/human Id3 (clone #6-1) and commercial rabbit polyclonal antibody (Santa Cruz Biotechnology) were determined according to the procedures of Example 9.

Experiment [10] concerns the target T7, Human Id3: Histidine. Briefly: ELISA, Ab 0.025 µg/ml. On the procedure: as §1, §2
Experiment [11] deals with T6, Mouse Id1: Histidine. Kind of experiment: ELISA, Ab 0.025 µg/ml. On the procedure: as §1, §2

B1: rabbit monoclonal anti-human Id3, clone #BCH-4/#3-3 (antibody, V domains shown)
VH: QSVEESGGRLVTPGTPLTLTCTVSGIDLSSYAMSWVRQAPGKGLEWIGVIFPSNNVYYASWAKGRFTISKTSTTVDLKITSPTTEDTATYFCASMGAFDSWGPGTLVTVSS
VL: QVLTQTPSPVSAAVGGTVTINCQASQSIYNDNDLAWFQQKPGQPPKLLIYDASTLTSGVPSRFKGSGSGTQFTLTISDLDCDDAATYYCAARYSGNIYGFGGGTEVVVK
notes: Rabbit IgG from a rabbit hybridoma; also called h Id3 MoAb 3-3
As for B1, the “Cross-reactivity (%)” value with Human Id1: Histidine [1], with Mouse Id2: Histidine [2], in the experiment with Human Id2: Histidine [3], in the experiment with Mouse Id4: Histidine, in the experiment with Human Id4: Histidine and with Mouse Id1: Histidine [4] was < 1% in each case.

B2: rabbit monoclonal anti-mouse/human Id3, clone #BCH-4/#6-1 (antibody, V domains shown)
VH: QSVEESGGRLVTPGTPLTLTCTASGFSLSNVYIHWVRQAPGKGLEWIGYISDGDTARYATWAKGRFTISKTSSTTVNLKMTSLTTEDTATYFCARQGFNIWGPGTLVTVSL
VL: AVLTQTPSPVSAAVGGTVSISCQSSQSVWNNNWLSWFQQKPGQPPKLLIYETSKLESGVPSRFKGSGSGTQFTLTISDVQCDDAATYYCLGGYWTTSDNNVFGGGTEVVVK
notes: Rabbit IgG from a rabbit hybridoma; also called m/h Id3 MoAb 6-1
In the case of B2, the A450 worked out at 0.073 A450 in the experiment with Mouse Id2: Histidine [5]; 0.076 A450 with Human Id2: Histidine [6]; 0.248 A450 with Human Id3: Histidine [7]; 0.076 A450 with Mouse Id1: Histidine [8]; 0.073 A450 with Human Id1: Histidine [9]; 1.01 A450 with Human Id3: Histidine [10]. The molecule further gave an A450 in the experiment with Mouse Id1: Histidine [11] of 0.072 A450.
